Results from PMC5484772.
Bridges are numbered along the chain shown (N, C = ends). Where no end group is shown, it is not given here.

Experiments:
Experiment in all cases: SPR; competition in solution, Biacore T200: 796 nM (50 ug/ml) purified DiCo mixed with PfRon2L in serial 1:3 dilutions from 12.5 uM to 5.7 nM, incubated 4 h at room temperature; residual binding of free DiCo read on biotinylated PfRon2L immobilised on a Series S streptavidin chip; buffer control set to 100%
DiCo-Mix = target: DiCo-Mix
[1] = target: PfAMA1 diversity covering variant DiCo1
[2] = target: PfAMA1 diversity covering variant DiCo2
[3] = target: PfAMA1 diversity covering variant DiCo3

B1: PfRon2L (peptide)
peptide: DITQQAKDIGAGPVASCFTTRMSPPQQICLNSVVNTALS
modifications: disulfide 17-29 (inferred)
With B1 the PfRon2L concentration at full equilibrium saturation of 796 nM DiCo (DiCo-Mix) was 12.5 µM, the PfRon2L concentration for almost full saturation of 796 nM DiCo (DiCo-Mix) was > 1000 nM and the PfRon2L concentration at full equilibrium saturation of 796 nM DiCo [1] was 12.5 µM. For the same binder, the PfRon2L concentration for almost full saturation of 796 nM DiCo [1] was > 1000 nM, the PfRon2L concentration at full equilibrium saturation of 796 nM DiCo [2] was 12.5 µM and the PfRon2L concentration for almost full saturation of 796 nM DiCo [2] was > 1000 nM. For the same binder, the PfRon2L concentration at full equilibrium saturation of 796 nM DiCo [3] was 12.5 µM and the PfRon2L concentration for equilibrium saturation of 796 nM DiCo [3] was > 10 µM.
